# Measurements as given in US20200297862A1 (Zymeworks, published 2020).
# B1: Variant 10014 (antibody, name in Kabat numbering, V domains shown)
# VH: EVQLVESGGGLVQPGGSLRLSCAASGFTFADYTMDWVRQAPGKGLEWVADVNPNSGGSIYNQRFKGRFTLSVDRSKNTLYLQMNSLRAEDTAVYYCARNLGPSFYFDYWGQGTLVTVSS
# VL: DIQMTQSPSSLSASVGDRVTITCKASQDVSIGVAWYQQKPGKAPKLLIYSASYRYTGVPSRFSGSGSGTDFTLTISSLQPEDFATYYCQQYYIYPATFGQGTKVEIK
# notes: also called v10014; OAA variant
# Experiments:
# Recombinant human HER2 [1] = target: T1, Recombinant human HER2 (human, UniProt P04626 23-652); assay: SPR as in Example 12, one-armed antibody, pre-SEC, against v10013
# T1 construct: extracellular domain
# Recombinant human HER2 [2] = target: T1, Recombinant human HER2; assay: SPR as in Example 12, one-armed antibody, post-SEC, against v10013
binder,measurement,setting,value
B1,Fold wrt WT (KD(WT)/KD(mut)),Recombinant human HER2 [1],8.1 fold
same,Fold wrt WT (KD(WT)/KD(mut)),Recombinant human HER2 [2],7 fold
